Measurements from patent US20110311544A1.

Legend:
[1] = molecular target: CD71 (transferrin receptor) on human tumour cell lines (human) (UniProt P02786); assay: quantitative flow cytometry on A375 cells, background control, medium human AB serum, no Tf-Fe
[2] = molecular target: CD71 (transferrin receptor) on human tumour cell lines (human) (UniProt P02786); assay: quantitative flow cytometry on A375 cells, background control, medium human AB serum, with Tf-Fe
[3] = molecular target: CD71 (transferrin receptor) on human tumour cell lines (human) (UniProt P02786); assay: quantitative flow cytometry on A375 cells, background control, medium FCS, with Tf-Fe
[4] = molecular target: CD71 (transferrin receptor) on human tumour cell lines (human) (UniProt P02786); assay: quantitative flow cytometry on A375 cells, background control, medium FCS, no Tf-Fe
[5] = molecular target: CD71 (transferrin receptor) on human tumour cell lines (human) (UniProt P02786); assay: flow cytometry, biotin-OKT9 on A375 cells after pre-incubation with control ascites NS1 at 4° C. (no competitor)
[6] = molecular target: CD71 (transferrin receptor) on human tumour cell lines (human) (UniProt P02786); assay: flow cytometry, biotin-OKT9 on A375 cells after pre-incubation with control ascites NS1 at 37° C. (no competitor)

Chain of UniProt P02786 (P02786 whole entry): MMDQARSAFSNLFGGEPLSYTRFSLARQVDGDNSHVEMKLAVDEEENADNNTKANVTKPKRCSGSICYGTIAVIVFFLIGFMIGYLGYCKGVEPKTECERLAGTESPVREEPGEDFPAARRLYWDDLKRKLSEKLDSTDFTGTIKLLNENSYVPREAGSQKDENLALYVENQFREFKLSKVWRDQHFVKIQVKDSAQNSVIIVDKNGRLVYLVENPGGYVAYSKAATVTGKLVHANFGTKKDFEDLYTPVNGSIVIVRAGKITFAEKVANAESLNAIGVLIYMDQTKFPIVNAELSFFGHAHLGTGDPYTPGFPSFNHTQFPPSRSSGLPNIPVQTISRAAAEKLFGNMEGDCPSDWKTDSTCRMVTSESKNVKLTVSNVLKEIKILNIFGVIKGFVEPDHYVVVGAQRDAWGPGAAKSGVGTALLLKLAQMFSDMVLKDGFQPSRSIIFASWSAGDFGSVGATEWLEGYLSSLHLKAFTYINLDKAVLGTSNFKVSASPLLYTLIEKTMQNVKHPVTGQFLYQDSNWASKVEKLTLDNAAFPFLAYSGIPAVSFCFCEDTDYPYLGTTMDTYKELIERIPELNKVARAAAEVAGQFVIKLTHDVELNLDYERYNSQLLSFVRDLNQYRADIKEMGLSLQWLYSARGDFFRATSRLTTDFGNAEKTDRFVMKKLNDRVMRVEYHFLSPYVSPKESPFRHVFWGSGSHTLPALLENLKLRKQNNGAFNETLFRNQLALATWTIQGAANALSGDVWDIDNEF

Row | Substance | Sites [1] [sites] | Sites [2] [sites] | Sites [3] [sites] | Sites [4] [sites] | Mean Fluorescence intensity [5] | Mean Fluorescence intensity [6]
1 | control ascites NS1 | 5790 | 5790 | 3310 | 3250 | – | –
2 | biotin-labeled anti-CD71 mAb OKT9 (antibody) | – | – | – | – | 6.53 | 8.84
